# Measurements reported in PMC10584365 (Nature, 2023).
# Several values for one entry are separate records, joined by “and”; a condition that tells them apart may be missing. Equal entries are not always repeated.
# B1: full-length human TRPV3 channel (expressed in P. pastoris) (natural protein, UniProt Q8NET8 1-790, looked up)
# chain: MKAHPKEMVPLMGKRVAAPSGNPAILPEKRPAEITPTKKSAHFFLEIEGFEPNPTVAKTSPPVFSKPMDSNIRQCISGNCDDMDSPQSPQDDVTETPSNPNSPSAQLAKEEQRRKKRRLKKRIFAAVSEGCVEELVELLVELQELCRRRHDEDVPDFLMHKLTASDTGKTCLMKALLNINPNTKEIVRILLAFAEENDILGRFINAEYTEEAYEGQTALNIAIERRQGDIAALLIAAGADVNAHAKGAFFNPKYQHEGFYFGETPLALAACTNQPEIVQLLMEHEQTDITSRDSRGNNILHALVTVAEDFKTQNDFVKRMYDMILLRSGNWELETTRNNDGLTPLQLAAKMGKAEILKYILSREIKEKRLRSLSRKFTDWAYGPVSSSLYDLTNVDTTTDNSVLEITVYNTNIDNRHEMLTLEPLHTLLHMKWKKFAKHMFFLSFCFYFFYNITLTLVSYYRPREEEAIPHPLALTHKMGWLQLLGRMFVLIWAMCISVKEGIAIFLLRPSDLQSILSDAWFHFVFFIQAVLVILSVFLYLFAYKEYLACLVLAMALGWANMLYYTRGFQSMGMYSVMIQKVILHDVLKFLFVYIVFLLGFGVALASLIEKCPKDNKDCSSYGSFSDAVLELFKLTIGLGDLNIQQNSKYPILFLFLLITYVILTFVLLLNMLIALMGETVENVSKESERIWRLQRARTILEFEKMLPEWLRSRFRMGELCKVAEDDFRLCLRINEVKWTEWKTHVSFLNEDPGPVRRTDFNKIQDSSRNNSKTTLNAFEEVEEFPETSV
# B2: full-length human TRPV3 (expressed in HEK293S GnTI- cells) (natural protein, UniProt Q8NET8 1-790, looked up)
# chain: B1 chain
# Target: the molecule itself
# Assay: high-speed atomic force microscopy
row,Protein,stoichiometry N
1,B1,4 and 5
2,B2,3 and 2
